± gives the uncertainty stated by the source.
Assay: self-splicing fitness, log relative to wild type (ln ratio); higher = more splicing; Tetrahymena group I intron in knt gene, E. coli kanamycin selection, DiMSum; sequences stand for … in CUCUCU…GGAGGGAAAAGUUAUCAGGCAUGCACCUGGUAGCUAGUCUUUAAACCAAUAGAUUGCAUCGGUUUAAAAGGCAAGACCGUCAAAUUGCGGGAAAGGGGUCAACAGCCGUUCAGUACCAAGUCUCAGGGGAAACUUUGAGAUGGCCUUGCAAAGGGUAUGGUAAUAAGCUGACGGACAUGGUCCUAACCACGCAGCCAAGUCCUAAGUCAACAGAUCUUCUGUUGAUAUGGAUGCAGUUCACAGACUAAAUGUCGGUCGGGGAAGAUGUAUUCUUCUCAUAAGAUAUAGUCGGACCUCUCCUUAAUGGGAGCUAGCGGAUGAAGUGAUGCAACACUGGAGCCGCUGGGAACUAAUUUGUAUGCGAAAGUAUAUUGAUUAGUUUUGGAGUACUCGUGGUCG
In short: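 Fitness was computed with DiMSum as the error-weighted combination of replicate fold changes, kanamycin versus none, each normalised to wild type. The library randomised all eight intron nucleotides of the P1ex region, with the intron placed in the knt kanamycin-resistance gene on pET-22b(+) in E. coli BL21(DE3). Six replicate transformations were grown overnight at 37°C or 30°C on LB agar with or without 25 μg/mL kanamycin, plus 100 μg/mL carbenicillin, 50 μM IPTG and 0.2% rhamnose. Pooled colonies were amplicon-sequenced on an Illumina HiSeq 2500.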

Sequence	self-splicing fitness (ln) (30 °C)	self-splicing fitness (ln) (37 °C)
AUGUAGCAAUAUUACGCAAA	-2.34 ± 0.33	-1.07 ± 0.2
CAAUAGCAAUAUUACGCCAU	-3.21 ± 0.34	-2.43 ± 0.26
UAUCAGCAAUAUUACGUCGC		-2.03 ± 0.33
AAAUAGCAAUAUUACGCAAA	-2.3 ± 0.24	-1.66 ± 0.21
UCUUAGCAAUAUUACGAGUC		-2.22 ± 0.36
CCGCAGCAAUAUUACGACCG	-0.576 ± 0.074	0.229 ± 0.11
CCUAAGCAAUAUUACGGCCU	-1.9 ± 0.16	-1.84 ± 0.37
UAUCAGCAAUAUUACGUGUG	-0.333 ± 0.058	0.407 ± 0.076
ACUUAGCAAUAUUACGUAAU	-2.39 ± 0.1	-1.54 ± 0.12
CAUUAGCAAUAUUACGAGAG	-2.5 ± 0.19	-2.63 ± 0.21
GCUUAGCAAUAUUACGUCCA	-1.72 ± 0.14	-0.697 ± 0.14
GAGGAGCAAUAUUACGUGCU	-4.62 ± 0.42	-2.32 ± 0.21
GUGGAGCAAUAUUACGCUCG	-1.35 ± 0.16	-1.39 ± 0.23
UGCCAGCAAUAUUACGUGGC	-3.24 ± 0.19	-3.19 ± 0.25
AGUGAGCAAUAUUACGAGAG	-2.1 ± 0.26	-2.36 ± 0.29
CCCAAGCAAUAUUACGCAAG	-3.34 ± 0.19	-2.86 ± 0.22
UAGCAGCAAUAUUACGGUGA	-0.912 ± 0.08	-0.0764 ± 0.096
UACCAGCAAUAUUACGGAUU	-0.984 ± 0.071	-0.93 ± 0.077
CUUAAGCAAUAUUACGUUCG	-1.05 ± 0.075	-0.0528 ± 0.099
GGGCAGCAAUAUUACGUCAU	-0.717 ± 0.066	0.195 ± 0.076
UCGCAGCAAUAUUACGGAAA	-2.71 ± 0.21	-1.57 ± 0.17
GCAGAGCAAUAUUACGCAUG		-2.3 ± 0.39
CAAAAGCAAUAUUACGUGAG	-1.06 ± 0.04	-0.328 ± 0.069
GAGAAGCAAUAUUACGGCAA	-0.843 ± 0.084	0.00427 ± 0.11
AUUAAGCAAUAUUACGGUCG	-1.59 ± 0.11	-0.942 ± 0.12

Sequence	self-splicing fitness (ln) (30 °C)	self-splicing fitness (ln) (37 °C)
GCGUAGCAAUAUUACGCCUG	-4.08 ± 0.42	-3.13 ± 0.37
ACGCAGCAAUAUUACGAGAU	-3.32 ± 0.14	-2.68 ± 0.18
UCACAGCAAUAUUACGCGAC	-3.43 ± 0.21	-2.51 ± 0.26
GAGCAGCAAUAUUACGACAA	-1.41 ± 0.3	-2.31 ± 0.2
UGGCAGCAAUAUUACGCUUA	-0.68 ± 0.088	0.67 ± 0.1
AAUGAGCAAUAUUACGAGCC	-1.79 ± 0.44	
CAUCAGCAAUAUUACGGGCG	-0.567 ± 0.069	-0.377 ± 0.074
CGGCAGCAAUAUUACGGUGC	-2.88 ± 0.16	-2.18 ± 0.19
CUAUAGCAAUAUUACGCUGA	-2.84 ± 0.24	-2.32 ± 0.29
GAUGAGCAAUAUUACGUGAU	-3.66 ± 0.28	-2.3 ± 0.24
GAAUAGCAAUAUUACGUUAU	-2.79 ± 0.12	-1.65 ± 0.14
GGGGAGCAAUAUUACGGUCC	-1.26 ± 0.46	
AGUGAGCAAUAUUACGUUAA	-2.56 ± 0.31	-1.57 ± 0.25
GGAUAGCAAUAUUACGCAAG	-1.28 ± 0.27	-0.103 ± 0.34
CUACAGCAAUAUUACGCGGC	-2.27 ± 0.15	-0.807 ± 0.14
CGUCAGCAAUAUUACGUGAA	-2.11 ± 0.087	-0.281 ± 0.092
GGAGAGCAAUAUUACGUAGC		-0.906 ± 0.37
ACCCAGCAAUAUUACGAGCG	-2.3 ± 0.074	-0.837 ± 0.091
GGUUAGCAAUAUUACGCGCA	1.25 ± 0.28	0.766 ± 0.34
GAAGAGCAAUAUUACGAUAU	-4.88 ± 0.36	-1.06 ± 0.14
UUGCAGCAAUAUUACGUCGA	-0.56 ± 0.09	0.0432 ± 0.13
GGGUAGCAAUAUUACGGGCC	-2.03 ± 0.38	
ACCAAGCAAUAUUACGUUUG	-4.33 ± 0.16	-2.43 ± 0.14
UUAGAGCAAUAUUACGAUCG	-1.29 ± 0.15	-1.67 ± 0.16
GGUUAGCAAUAUUACGAGGG	-3.05 ± 0.21	-2.28 ± 0.34

Sequence	self-splicing fitness (ln) (30 °C)	self-splicing fitness (ln) (37 °C)
AAUAAGCAAUAUUACGGUGG	-4.07 ± 0.17	-2.31 ± 0.13
CCCUAGCAAUAUUACGACUG	-4.39 ± 0.36	-2.92 ± 0.27
AAACAGCAAUAUUACGAUGU	-1.36 ± 0.088	-0.715 ± 0.091
CGCGAGCAAUAUUACGUGUU	-3.1 ± 0.15	-2.75 ± 0.17
UAGCAGCAAUAUUACGUCGC	-4.47 ± 0.24	-2.73 ± 0.22
GUAGAGCAAUAUUACGCAGA		-1.92 ± 0.32
CACUAGCAAUAUUACGAUAU	-4.57 ± 0.34	-2.17 ± 0.2
CCGGAGCAAUAUUACGCUAC	-2.55 ± 0.49	
UUGAAGCAAUAUUACGGCAC	-0.928 ± 0.13	-0.814 ± 0.17
CCGAAGCAAUAUUACGGUCU	-2.93 ± 0.17	-3.23 ± 0.25
UGGGAGCAAUAUUACGAUCA	-0.66 ± 0.22	-0.124 ± 0.19
ACCUAGCAAUAUUACGACUC	-0.748 ± 0.088	-0.405 ± 0.098
ACGAAGCAAUAUUACGGCGA	-0.157 ± 0.087	0.0766 ± 0.12
ACGGAGCAAUAUUACGGAUG	-2.66 ± 0.31	-1.17 ± 0.28
CCCUAGCAAUAUUACGAGGA	-1.66 ± 0.074	-0.53 ± 0.075
GUAGAGCAAUAUUACGAGGU	-1.12 ± 0.16	-1.33 ± 0.32
UGCAAGCAAUAUUACGCCUC	-1.98 ± 0.46	-1.23 ± 0.23
GACCAGCAAUAUUACGGGCU	-2.93 ± 0.14	-1.96 ± 0.14
UGUAAGCAAUAUUACGGAAC	-2.78 ± 0.27	-1.77 ± 0.26
UUAAAGCAAUAUUACGGGCA	-0.351 ± 0.12	0.329 ± 0.16
CGUCAGCAAUAUUACGCUUC	-3.46 ± 0.36	-3.11 ± 0.31
AUAGAGCAAUAUUACGGCCC	-1.68 ± 0.17	-0.799 ± 0.3
CGAUAGCAAUAUUACGGGGG	-3.7 ± 0.3	-1.49 ± 0.16
UCACAGCAAUAUUACGAACA	-1.58 ± 0.1	-1.64 ± 0.11
UUACAGCAAUAUUACGGCGU	-2.6 ± 0.14	-2.57 ± 0.21

Sequence	self-splicing fitness (ln) (30 °C)	self-splicing fitness (ln) (37 °C)
GUUUAGCAAUAUUACGAGGU	-3.03 ± 0.2	-2.03 ± 0.2
UAGUAGCAAUAUUACGAAAC		-2.13 ± 0.45
CGUCAGCAAUAUUACGGCGG	-1.01 ± 0.082	0.0141 ± 0.11
UACAAGCAAUAUUACGUUGG	-3.19 ± 0.12	-1.41 ± 0.1
GGCGAGCAAUAUUACGAAAG	-3.27 ± 0.3	-2.77 ± 0.24
UCUUAGCAAUAUUACGGGAG	-2.63 ± 0.49	-2.41 ± 0.35
GACCAGCAAUAUUACGCAAA	-1.75 ± 0.11	-0.859 ± 0.1
CGCCAGCAAUAUUACGGACU	-0.845 ± 0.066	0.157 ± 0.091
CCUAAGCAAUAUUACGACGC		-1.59 ± 0.42
CCCGAGCAAUAUUACGAUUU	-3.84 ± 0.23	-2.15 ± 0.2
GAUAAGCAAUAUUACGUGAG	-2.14 ± 0.096	-0.113 ± 0.099
UUUGAGCAAUAUUACGAAGU		-2.67 ± 0.3
CUAGAGCAAUAUUACGAUAU	-3.18 ± 0.27	-2.09 ± 0.25
GGUUAGCAAUAUUACGAAGC	-0.991 ± 0.17	-1.24 ± 0.18
AAAGAGCAAUAUUACGUUGG	-3.59 ± 0.22	-2.4 ± 0.25
AUUCAGCAAUAUUACGAAGA	-0.761 ± 0.13	-0.747 ± 0.12
ACAUAGCAAUAUUACGUUUC	-3.55 ± 0.23	-2.84 ± 0.3
GAGUAGCAAUAUUACGGUUA	-0.885 ± 0.14	-0.497 ± 0.099
UGCGAGCAAUAUUACGGUCA	-0.764 ± 0.071	-0.397 ± 0.077
ACAUAGCAAUAUUACGGUUG	-2.29 ± 0.079	-1.95 ± 0.1
GGUGAGCAAUAUUACGACGA	-1.32 ± 0.22	-0.954 ± 0.34
GAUAAGCAAUAUUACGCCUC		-2.35 ± 0.42
AAUGAGCAAUAUUACGAUAA	-3.11 ± 0.17	-2.51 ± 0.2
GGGAAGCAAUAUUACGGCCA	-0.752 ± 0.14	-0.611 ± 0.19
